This is an account of results in US20240294570.

Data set [1] concerns T1, L-phosphopentapeptide 5, NBD-βA-LLLLpY.
T1 sequence: XLLLLX

Data set [2] concerns T2, phosphopeptide 3, NBD-βA-LLLpY.
T2 sequence: XLLLX

In data set [3] the test system is T3, phosphopentapeptide 9, NBD-βA-llllpY.
T3 sequence: LLLLY

The test system of data set [4] is T4, phosphopentapeptide 7, NBD-βA-LLpYLL.
T4 sequence: XLLXLL

For “Alkaline phosphatase (Biomatik, Cat. No. A1130)”, in data set [1], the “conversion of 5 to 6 after 1 hour, 0.1 U/mL ALP” value was “After 1 hour of incubation, 32.7% of 5 turns into 6”; the “conversion of 5 to 6 after 2 hours, 0.1 U/mL ALP” value was “After 2 hours of incubation of 5 with 0.1 U/mL of ALP, 49.6% of 5 becomes 6”; the “dephosphorylation ratio after 5 hours, 400 µM of 5, 0.5 U/mL ALP” value is reported as “After 5 hours of incubation, 400 µM of 5 results in a dephosphorylation ratio of 93.8%”; the “final dephosphorylation ratio, 5 (400 µM), 0.1 U/mL ALP” value is “the final dephosphorylation ratio is 69.1%”. In data set [1], the “fraction of 5 hydrolyzed at 40 minutes, 0.1 U/mL ALP” value is “At the time point 40 minutes, about 24% of 5 is hydrolyzed by ALP”. Also, the “dephosphorylation catalyzed by ALP” value in data set [2] is 3 is able to turn into 4 upon dephosphorylation catalyzed by ALP. Besides, the “conversion ratio of 9 to 10 after 5 hours, 0.5 U/mL ALP” value in data set [3] is listed as “After 5 hours of incubation, the conversion ratio of 9 to 10 is 93.3%”. For the same substance, the “conversion ratio of 7 to 8 after 5 h, 0.5 U/mL ALP” value in data set [4] is given as “After 5 h of incubation, the conversion ratio of 7 to 8 is 61.5%”.
